We go through five substances from article PMC8673628.

The target of assay [1] is Thioredoxin reductase from Sphingomonas sp. PAMC 26621 (SpTR) (Sphingomonas sp. PAMC 26621).
Assay [2] has the same target. In words: SEC; Superdex 200 10/300 GL gel filtration in buffer D (50 mM sodium phosphate, pH 7.2, 100 mM NaCl); molecular weight against a protein standard mix.

Regarding “Thioredoxin from the psychrophilic Arctic bacterium Sphingomonas sp. PAMC 26621 (SpTrx), wild type (natural protein)”, in assay [1], the Km of SpTR for SpTrx as substrate, 4°C (DTNB reduction at 412 nm, 50 nM SpTR, 0.1-10 μM Trx) was 1.1 µM and the Km of SpTR for SpTrx as substrate, 30°C (DTNB reduction at 412 nm, 50 nM SpTR, 0.1-10 μM Trx) is 0.63 µM.

SpTrx F26A mutant (natural protein): in assay [1], the Km of SpTR for SpTrx F26A as substrate, 4°C (DTNB reduction at 412 nm, 50 nM SpTR, 0.1-10 μM Trx) was 6.8 µM and the Km of SpTR for SpTrx F26A as substrate, 30°C (DTNB reduction at 412 nm, 50 nM SpTR, 0.1-10 μM Trx) was 6.41 µM.

In general, stoichiometry N refers to a count of units in the complex or per binding partner. With “Thioredoxin reductase from Sphingomonas sp. PAMC 26621 (SpTR) (enzyme)”, the stoichiometry N in assay [2] is 2.

SpTrx F26Y mutant (natural protein): in assay [1], the Km of SpTR for SpTrx F26Y as substrate, 4°C (DTNB reduction at 412 nm, 50 nM SpTR, 0.1-10 μM Trx) was determined as 1.17 µM and the Km of SpTR for SpTrx F26Y as substrate, 30°C (DTNB reduction at 412 nm, 50 nM SpTR, 0.1-10 μM Trx) turned out to be 0.6 µM.

As for SpTrx F26W mutant (natural protein), in assay [1], the Km of SpTR for SpTrx F26W as substrate, 4°C (DTNB reduction at 412 nm, 50 nM SpTR, 0.1-10 μM Trx) was found to be 1.24 µM and the Km of SpTR for SpTrx F26W as substrate, 30°C (DTNB reduction at 412 nm, 50 nM SpTR, 0.1-10 μM Trx) stood at 0.66 µM.
